Measured values taken from patent US20210070843A1.

Key:
[1] = molecular target: H7 A/Anhui/1-BALF_RG17/2013 HA on H7N9 AH/13 pseudo virus (influenza A virus A/Anhui/1-BALF_RG17/2013 (H7N9)); assay: cell-based or functional assay
[2] = molecular target: full-length H5 A/Vietnam/1203/2004 HA expressed on 293T cells (influenza A virus A/Vietnam/1203/2004 (H5N1)); assay: cell-based or functional assay
[3] = molecular target: full-length H1 A/California/07/2009 HA expressed on 293T cells (influenza A virus A/California/07/2009 (H1N1)); assay: cell-based or functional assay
[4] = molecular target: cell surface-expressed H3N2 WN/05 HA trimer (influenza A virus A/Wisconsin/67/2005 (H3N2)); assay: cell-based or functional assay
[5] = molecular target: full-length H5 A/Vietnam/1203/2004 HA expressed on 293T cells (influenza A virus A/Vietnam/1203/2004 (H5N1)); assay: flow cytometry, HA-expressing 293T
[6] = molecular target: full-length H1 A/California/07/2009 HA expressed on 293T cells (influenza A virus A/California/07/2009 (H1N1)); assay: flow cytometry, HA-expressing 293T
[7] = molecular target: cell surface-expressed H3N2 WN/05 HA trimer (influenza A virus A/Wisconsin/67/2005 (H3N2)); assay: flow cytometry, HA-expressing 293T

Binder	IC50 of pseudo virus neutralization H7N9 AH/13 [1]	IC50 of pseudo virus neutralization H5N1 VN/04 [2]	IC50 of pseudo virus neutralization H1N1 CA/09 [3]	IC50 of true virus neutralization H1N1 CA/09 [3]	IC50 of pseudo virus neutralization H3N2 WN/05 [4]	max. MFI [5]	max. MFI [6]	EC50 [7]	max. MFI [7]	EC50 [6]	EC50 [5]
C05 (antibody, V domains shown) VH: PVQLQESGGGLVQPGESLRLSCVGSGSSFGESTLSYYAVSWVRQAPGKGLEWLSIINAGGGDIDYADSVEGRFTISRDNSKETLYLQMTNLRVEDTGVYYCAKHMSMQQVVSAGWERADLVGDAFDVWGQGTMVTVSS VL: DIQLTQSPSSLSASVGDRVTLTCQASQDIRKFLNWYQQKPGKGPKLLIYDASNLQRGVPSRFSGGGSGTDFTLIISSLQPEDVGTYYCQQYDGLPFTFGGGTKVEIKR	> 200 µg/mL	> 200 µg/mL	> 100 µg/mL	> 500 µg/mL	10.2 ng/mL	547 MFI	86 MFI	0.13 µg/mL	14600 MFI		
P47 (antibody, V domains shown) VH: EVQLVESGGGLVQPGGSLRLSCAASGFTIGNSGIHWVRQAPGKGLEWVASIWPSGGSTYYADSVKGRFTISADTSKNTAYLQMNSLRAEDTAVYYCARFGHIDGDIMDYWGQGTLVTVSS VL: DIQMTQSPSSLSASVGDRVTITCRASQDVYYYVAWYQQKPGKAPKLLISGSSYLYSGVPSRFSGSGSGTDFTLTISSLQPEDFATYYCQQYYNWPLTFGQGTKVEIKR	> 200 µg/mL	> 200 µg/mL	> 100 µg/mL	> 500 µg/mL	> 20000 ng/mL	396 MFI	10200 MFI		175 MFI	0.61 µg/mL	
P48 (antibody, V domains shown) VH: EVQLVESGGGLVQPGGSLRLSCAASGFTINSWGIHWVRQAPGKGLEWVAGIGPSWGYTSYADSVKGRFTISADTSKNTAYLQMNSLRAEDTAVYYCARFGDGDFDLMDYWGQGTLVTVSS VL: DIQMTQSPSSLSASVGDRVTITCRASQDVWSYVAWYQQKPGKAPKLLISYTSYLYSGVPSRFSGSGSGTDFTLTISSLQPEDFATYYCQQYFNWPITFGQGTKVEIKR	> 200 µg/mL	> 200 µg/mL	> 100 µg/mL	> 500 µg/mL	> 20000 ng/mL	474 MFI	7860 MFI		258 MFI	2.4 µg/mL	
S01 (antibody, V domains shown) VH: EVQLVESGGGLVQPGGSLRLSCAASGFTINNYGIHWVRQAPGKGLEWVASIWPSGGYTSYADSVKGRFTISADTSKNTAYLQMNSLRAEDTAVYYCARFGLGDYDIMDYWGQGTLVTVSS VL: DIQMTQSPSSLSASVGDRVTITCRASQDVWGYVAWYQQKPGKAPKLLISFPSSLYSGVPSRFSGSGSGTDFTLTISSLQPEDFATYYCQQYYDGPVTFGQGTKVEIKR	> 200 µg/mL	> 200 µg/mL	> 100 µg/mL	> 500 µg/mL	> 20000 ng/mL	306 MFI	8430 MFI		178 MFI	0.384 µg/mL	
S07 (antibody, V domains shown) VH: EVQLVESGGGLVQPGGSLRLSCAASGFTINSSGIHWVRQAPGKGLEWVASIGPSWGSTYYADSVKGRFTISADTSKNTAYLQMNSLRAEDTAVYYCARFGIGDIDVMDYWGQGTLVTVSS VL: DIQMTQSPSSLSASVGDRVTITCRASQDVWGYVAWYQQKPGKAPKLLISYASFLYSGVPSRFSGSGSGTDFTLTISSLQPEDFATYYCQQYFNWPVTFGQGTKVEIKR	> 200 µg/mL	> 200 µg/mL	> 100 µg/mL	> 500 µg/mL	> 20000 ng/mL	863 MFI	10800 MFI	3.71 µg/mL	410 MFI	1.61 µg/mL	4.98 µg/mL
S40 (antibody, V domains shown) VH: EVQLVESGGGLVQPGGSLRLSCAASGFTIGDFGIHWVRQAPGKGLEWVAGIWPFGGYTYYADSVKGRFTISADTSKNTAYLQMNSLRAEDTAVYYCARFVNWDGDYMDYWGQGTLVTVSS VL: DIQMTQSPSSLSASVGDRVTITCRASQDVGFYVAWYQQKPGKAPKLLISWSSYLYSGVPSRFSGSGSGTDFTLTISSLQPEDFATYYCQQYYNYPLTFGQGTKVEIKR	> 200 µg/mL	> 200 µg/mL	> 100 µg/mL	436 µg/mL	> 20000 ng/mL	724 MFI	8630 MFI		109 MFI	0.46 µg/mL	2.85 µg/mL
S51 (antibody, V domains shown) VH: EVQLVESGGGLVQPGGSLRLSCAASGFTIDDWGIHWVRQAPGKGLEWVAWIWPYGGFTSYADSVKGRFTISADTSKNTAYLQMNSLRAEDTAVYYCARFGFVDWNLMDYWGQGTLVTVSS VL: DIQMTQSPSSLSASVGDRVTITCRASQDVWGYVAWYQQKPGKAPKLLISYTTYLYSGVPSRFSGSGSGTDFTLTISSLQPEDFATYYCQQYYNSPVTFGQGTKVEIKR	> 200 µg/mL	> 200 µg/mL	> 100 µg/mL	> 500 µg/mL	> 20000 ng/mL	452 MFI	6290 MFI		340 MFI	0.754 µg/mL	
P10 (antibody, V domains shown) VH: EVQLVESGGGLVQPGGSLRLSCAASGFTIDNSWIHWVRQAPGKGLEWVASIWPFGGYTYYADSVKGRFTISADTSKNTAYLQMNSLRAEDTAVYYCARFGNVFDWYMDYWGQGTLVTVSS VL: DIQMTQSPSSLSASVGDRVTITCRASQDVNSNVAWYQQKPGKAPKLLIYWAGYLYSGVPSRFSGSGSGTDFTLTISSLQPEDFATYYCQQSSDFPITFGQGTKVEIKR	> 200 µg/mL	> 200 µg/mL	0.465 µg/mL	> 500 µg/mL	> 20000 ng/mL	517 MFI	9660 MFI		117 MFI	0.41 µg/mL	
P14 (antibody, V domains shown) VH: EVQLVESGGGLVQPGGSLRLSCAASGFTIGDFGIHWVRQAPGKGLEWVAGIWPFGGYTYYADSVKGRFTISADTSKNTAYLQMNSLRAEDTAVYYCARFVNWDGDYMDYWGQGTLVTVSS VL: DIQMTQSPSSLSASVGDRVTITCRASQDVGFYVAWYQQKPGKAPKLLISWSSYLYSGVPSRFSGSGSGTDFTLTISSLQPEDFATYYCQQYYNYPLTFGQGTKVEIKR	> 200 µg/mL	> 200 µg/mL	> 100 µg/mL	4390 µg/mL	> 20000 ng/mL	328 MFI	8340 MFI		154 MFI	0.125 µg/mL	
P25 (antibody, V domains shown) VH: EVQLVESGGGLVQPGGSLRLSCAASGFTISNGGIHWVRQAPGKGLEWVAGIGPYGGYTYYADSVKGRFTISADTSKNTAYLQTNSLRAEDTAVYYCARFYGYSGIMDYWGQGTLVTVSS VL: DIQMTQSPSSLSASVGDRVTITCRASQDVWGYVAWYQQKPGKAPKLLISGSRSLYSGVPSRFSGSGSGTDFTLTISSLQPEDFATYYCQQYYNYPITFGQGTKVEIKR	> 200 µg/mL	> 200 µg/mL	> 100 µg/mL	> 500 µg/mL	> 20000 ng/mL	318 MFI	2380 MFI		152 MFI	0.761 µg/mL	
P28 (antibody, V domains shown) VH: EVQLVESGGGLVQPGGSLRLSCAASGFTINNSGIHWVRQAPGKGLEWVASIWPSGGYTYYADSVKGRFTISADTSKNTAYLQMNSLRAEDTAVYYCARFNSSYSSGLMDYWGQGTLVTVSS VL: DIQMTQSPSSLSASVGDRVTITCRASQDVWYSVAWYQQKPGKAPKLLIYFATGLYSGVPSRFSGSGSGTDFTLTISSLQPEDFATYYCQQYFNWPVTFGQGTKVEIKR	> 200 µg/mL	> 200 µg/mL	> 100 µg/mL	> 500 µg/mL	> 20000 ng/mL	193 MFI	168 MFI		127 MFI		
P38 (antibody, V domains shown) VH: EVQLVESGGGLVQPGGSLRLSCAASGFTINDGGIHWVRQAPGKGLEWVAFIGPYGGSTFYADSVKGRFTISADTSKNTAYLQMNSLRAEDTAVYYCAGFIGDYSSYHGVMDYWGQGTLVTVSS VL: DIQMTQSPSSLSASVGDRVTITCRASQDVWGYVAWYQQKPGKAPKLLISWPGGLYSGVPSRFSGSGSGTDFTLTISSLQPEDFATYYCQQYSSFPLTFGQGTKVEIKR	> 200 µg/mL	> 200 µg/mL	> 100 µg/mL	> 500 µg/mL	> 20000 ng/mL	240 MFI	988 MFI		137 MFI	3.16 µg/mL	
